Laboratory results published in publication PMC5943514, “Substrate specificity of human MCPIP1 endoribonuclease” (Scientific Reports, 2018).

Target: T1, MCPIP1 D141N (Regnase-1), full length (Homo sapiens, UniProt Q5D1E8 1-599, D141N)
T1 sequence: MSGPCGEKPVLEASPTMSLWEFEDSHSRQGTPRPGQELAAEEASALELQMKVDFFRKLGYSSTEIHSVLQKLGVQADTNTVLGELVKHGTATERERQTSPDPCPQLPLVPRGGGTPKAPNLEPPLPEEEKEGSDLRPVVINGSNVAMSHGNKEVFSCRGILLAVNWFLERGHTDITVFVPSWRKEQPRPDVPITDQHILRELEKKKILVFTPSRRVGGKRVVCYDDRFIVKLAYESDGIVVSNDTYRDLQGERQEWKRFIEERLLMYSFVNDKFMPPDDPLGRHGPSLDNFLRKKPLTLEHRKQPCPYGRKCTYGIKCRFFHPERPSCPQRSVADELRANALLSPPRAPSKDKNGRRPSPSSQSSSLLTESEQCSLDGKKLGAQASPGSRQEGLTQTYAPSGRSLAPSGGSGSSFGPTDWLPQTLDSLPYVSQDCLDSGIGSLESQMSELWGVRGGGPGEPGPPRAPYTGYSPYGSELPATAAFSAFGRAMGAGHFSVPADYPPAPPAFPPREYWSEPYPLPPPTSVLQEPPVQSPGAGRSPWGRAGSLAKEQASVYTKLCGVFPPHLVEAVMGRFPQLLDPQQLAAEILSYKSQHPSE
Assay: EMSA; apparent Kd, Hill analysis; 1% agarose, TBE; 25 mM Tris-HCl pH 7.9, 150 mM NaCl, 5% glycerol, 2.5 mM MgCl2, 1 mM DTT, 0.5 mM EDTA, 0.05 mM ZnCl2, 25 C; oligo 2 nM (full length) or 20 nM (PIN, PIN-ZF)
Settings: protein: recombinant; tags: none stated (purified by ion exchange); chain copies: 2; label: 5' 6-FAM; hairpin

UGUUGUUCUCUACGAAGAACUGACA (structured_RNA) [mIL-6 82-106 5'FAM]
Kd: 394 ± 45 nM
